In IntAct's records for PubMed 9647694:

B1: ATP-sensitive inward rectifier potassium channel 10 (Mus musculus), Q9JM63 (parent)
chain: MTSVAKVYYSQTTQTESRPLVAPGIRRRRVLTKDGRSNVRMEHIADKRFLYLKDLWTTFIDMQWRYKLLLFSATFAGTWFLFGVVWYLVAVAHGDLLELGPPANHTPCVVQVHTLTGAFLFSLESQTTIGYGFRYISEECPLAIVLLIAQLVLTTILEIFITGTFLAKIARPKKRAETIRFSQHAVVASHNGKPCLMIRVANMRKSLLIGCQVTGKLLQTHQTKEGENIRLNQVNVTFQVDTASDSPFLILPLTFYHVVDETSPLKDLPLRSGEGDFELVLILSGTVESTSATCQVRTSYLPEEILWGYEFTPAISLSASGKYIADFSLFDQVVKVASPSGLRDSTVRYGDPEKLKLEESLREQAEKEGSALSVRISNV

Variants of: B1
Conditions: with inadl_mouse Patj

**Q.** With V379A as the variant, how does the “effect of a mutation on the interaction” value read?
**A.** disrupting interaction

**Q.** Which “effect of a mutation on the interaction” value does the source give for S377G here?
**A.** disrupting interaction
